# Results as given in patent US7700353B2, “Compositions and methods for inducing apoptosis in tumor cells” (E-P Therapeutics, Inc., priority 1998, dated 2010).
# B1: hEb: chemically synthesized human Eb peptide of pro-IGF-I, 77 amino acid residues (SEQ ID NO:1) (peptide, listed as Homo sapiens)
# chain: RSVRAQRHTDMPKTQKYQPPSTNKNTKSQRRKGWPKTHPGGEQKEGTEASLQIRGKKKEQRREIGSRNAECRGKKGK
# B2: rtEa-4: recombinant Ea-4 peptide of rainbow trout pro-IGF-I, 74 amino acid residues (SEQ ID NO: 2) (protein)
# chain: RSVRAQRHTDMPRTPKVSTAVQNVDRGTERRTAQHPDKTKTKKKPLSGHSHPSCKEVHQKNSSRGNTGGRNYRM
# modifications: Oncorhynchus mykiss
# Columns and labels:
# [1] = system: CCD-1112SK primary baby foreskin cells
# Excerpt: Apoptosis of cells can also be detected by terminal deoxynucleotidyl transferase mediated dUTP nick end labeling (TUNEL) assay.
# [2] = system: SK-N-F1 neuroblastoma cells; assay: Neurite-like process outgrowth / morphological differentiation; format: cell-based, human; conditions: 2 h
# [3] = system: MCF-7, HT-29, HepG2, ZR-75-1, SK-N-F1, or HC cells; assay: Morphological change assay in tumor cell lines; format: cell-based, human and fish
# Procedure: Approximately 1-2×10^5 of MCF-7, ZR-75-1, HT-29, HepG2, 293GP, HC or SK-N-F1 cells re-suspended in their respective basal medium without fetal bovine serum (FBS) were plated in a 6-well culture chamber. Prior to plating cells, an acid-washed coverslip was placed in each well of the culture chamber. Recombinant rainbow trout E-peptides (rtEa-2, rtEa-3 or rtEa-4 peptide at 0.8 µM), human IGF-I (hIGF-1, 2.5 nM) or the same amount of control protein was added to each well and the cell cultures were incubated at 37° C. under a humidified atmosphere of 5% CO2. The control protein was prepared from E. coli cells carrying the expression plasmid but without the E-peptide gene according to the purification method described by Tian et al. (1999). Coverslips were removed from the culture chamber 24 hours after initiation of the treatment and observed under an Olympic inverted microscope equipped with differential interference phase contrast objective lenses or phase contrast objective lens (final magnification, 200×). The morphological change assay was performed at least 10 times with different batches of Ea-4 peptide preparations.
# Oncogenic transformed or established cancer cells derived from human and fish (MCF-7, HT-29, HepG2, ZR-75-1, SK-N-F1, or HC cells) were plated in their respective serum-free basal medium supplemented with 0.8 µM of the trout recombinant Ea-4-peptide, with the control protein, or with 2.5 nM of the recombinant hlGF-I and the cultures were examined 24 hours later under an inverted microscope equipped with differential interference phase contrast objectives. […] The rtEa-4 peptide treated cells developed several pseudopodia-like structures to establish contact with neighboring cells similar to that seen in untransformed or non-malignant cells.
# Because each of these tumor cell lines obtained from ATCC contains a mixed population of tumorous and nontumorous cells, only between 25-40% of the cells from each cell line responded to induction by rtEa-4-peptide. […]
# [4] = system: Caspase-3 mRNA in MDA-MB-231; assay: Induction of caspase-3 mRNA; format: cell-based, human
# Excerpt: (§1) Induction of caspase-3 has been widely used as an indicator of cells undergoing apoptosis.
# [5] = system: Caspase-3 mRNA in SKOV-3(A); assay: Induction of caspase-3 mRNA; format: cell-based, human
# Excerpt: as §1
# [6] = system: Caspase-3 mRNA in OVCAR-3(B); assay: Induction of caspase-3 mRNA; format: cell-based, human
# Excerpt: as §1
# [7] = system: activated caspase-3 in MDA-MB-231(C); assay: Activated caspase-3 staining; format: cell-based, human; conditions: about 1.5 μM, about 48 hours
# Procedure: FIG. 24 depicts the effect of rtEa4-peptide on induction of apoptosis in MDA-MB-231 cells treated with rtEa4-peptide. (A) Detection of apoptosis by TUNEL assay; (B) Detection of apoptosis y detecting the induction of the activated caspase-3 activity. MDA-MB-231 cells were treated with about 1.5 μM of rtEa4-peptide for about 48 hours, fixed and subjected to TUNEL assay or stained with anti-human activated caspase-3 serum conjugated with rhodamine. Hydrogen peroxide (H2O2), 0.5 mM, was used to induce apoptosis as a positive control.
# as §1
# [8] = system: cultured BALB/3T3 fibroblast; conditions: recombinant peptides; cited from earlier work
# [9] = system: NIH 3T3 cells and caprine mammary epithelium cells (CMEC); conditions: recombinant peptides; cited from earlier work
# [10] = system: HT-29 or MDA-MB-231 cells; assay: Colony formation assay in semi-solid medium (Ea-4 peptide); format: cell-based, human; conditions: increasing concentrations (0.4 to 1.6 μM), 1.25% FBS, vs control protein
# Procedure: Colony formation assays were conducted following the method described by Yang (1975). About 2×10^4 of HT-29 (colon cancer cells) or MDA-MB-231 cells (aggressive breast cancer cells) at log phase were plated in their respective basal medium containing 1.25% FBS and 0.5% purified agar (Difco laboratories), and supplemented with various concentrations (0.4 to 1.6 µM) of the recombinant rainbow trout Ea-4 peptide, or the same amount of the control protein, in 6-well culture chambers. After the medium is solidified, each well is overlaid with 1 mL of the basal medium (containing 1.25% FBS) supplemented with same concentration of the trout Ea-4 peptide. The plates were incubated at 37° C. in a humidified incubator with 5% CO2 and examined daily under an inverted microscope for 2-3 weeks. Colonies were observed under an Olympic inverted microscope equipped with phase contrast objective lenses (final magnification: 40×). Colonies with sizes ≥50 µm were scored. The viability of cells at the conclusion of the experiment was confirmed by dye extrusion assay with tryptan blue. The assay was conducted two times.
# [11] = system: ovarian cancer cells (SKOV-3); assay: Apoptosis observed under microscope; format: cell-based, human; conditions: 0.1-3.4 μM, 4 hours
# Procedure: FIG. 22 depicts apoptosis in ovarian cancer cells (SKOV) induced by various amounts of rtEa4-peptide. SKOV cells were treated with various amounts (0.1-3.4 μM) for 4 hours and observed under a microscope. Arrows indicate apoptotic cells.
# Killing of cancer cells by E-peptide could be the consequence of apoptosis or necrosis. To differentiate these two possibilities, MDA-MB-231 (C) cells were grown in culture in the presence of about 1.5 μM of trout Ea4-peptide. After about two hours of incubation the cells were observed under a microscope. […] FIG. 22 presents the results of the effect of trout Ea4-peptide on induction of apoptosis in ovarian cancer cells (SKOV-3).
molecule,measurement,setting,value
B1,Apoptosis,[1],−
same,Neurite length,[2]; 0.4 μM,30 ± 1.6 μm
same,Neurite length,[2]; 1.6 μM,33 ± 3.8 μm
same,Neurite length,[2]; 3.2 μM,33 ± 2.8 μm
B2,morphological change,"[3]; 0.8 μM, 24 hours, serum-free basal medium",flattened out and attached tightly to the culture dish
same,cells from each cell line responding to induction,[3]; mixed population cell lines from ATCC,25-40%
same,Caspase-3 mRNA,[4]; 0.04 μM,3.9 × 10^5 ± 3.8 × 10^4 molecules / μg total RNA
same,Caspase-3 mRNA,[4]; 0.20 μM,3.4 × 10^5 ± 3.1 × 10^4 molecules / μg total RNA
same,Caspase-3 mRNA,[4]; 1.00 μM,4.6 × 10^5 ± 9.5 × 10^4 molecules / μg total RNA
same,Caspase-3 mRNA,[4]; 5.00 μM,5.8 × 10^5 ± 1.3 × 10^4 molecules / μg total RNA
same,Caspase-3 mRNA,[5]; 0.04 μM,3.0 × 10^5 ± # molecules / μg total RNA
same,Caspase-3 mRNA,[5]; 0.20 μM,2.5 × 10^5 ± # molecules / μg total RNA
same,Caspase-3 mRNA,[5]; 1.00 μM,3.7 × 10^5 ± # molecules / μg total RNA
same,Caspase-3 mRNA,[5]; 5.00 μM,2.2 × 10^5 ± # molecules / μg total RNA
same,Caspase-3 mRNA,[6]; 0.04 μM,7.8 × 10^5 ± 7.9 × 10^4 molecules / μg total RNA
same,Caspase-3 mRNA,[6]; 0.20 μM,9.9 × 10^5 ± 2.0 × 10^4 molecules / μg total RNA
same,Caspase-3 mRNA,[6]; 1.00 μM,1.9 × 10^5 ± 3.4 × 10^4 molecules / μg total RNA
same,Caspase-3 mRNA,[6]; 5.00 μM,1.0 × 10^5 ± 1.4 × 10^4 molecules / μg total RNA
same,level of activated caspase-3 activity,[7],induced
same,mitogenic activity,[8],possess mitogenic activity
same,mitogenic activity,[9],possess mitogenic activity
same,colonies developed in soft agar medium,[10],fewer colonies
same,apoptosis (microscopy),[11],dose-dependent induction of apoptosis
